Reference: patent publication US20160272694A1
One block for each substance: values may come before it.

What was measured:
hEDAR-mFc (human) [1] = target: hEDAR-mFc (human) (UniProt Q9UNE0); experiment: sandwich ELISA: hEDAR-mFc coated, anti-human IgG (Fc) CH2-HRP detection; EDA-A1 with hFc, nominal 25 ng/mL, batch 7
hEDAR-mFc (human) [2] = target: hEDAR-mFc (human) (UniProt Q9UNE0); experiment: sandwich ELISA: hEDAR-mFc coated, anti-human IgG (Fc) CH2-HRP detection; EDA-A1 with hFc, nominal 50 ng/mL, batch 7
hEDAR-mFc (human) [3] = target: hEDAR-mFc (human) (UniProt Q9UNE0); experiment: sandwich ELISA: hEDAR-mFc coated, anti-human IgG (Fc) CH2-HRP detection; EDA-A1 3.13 ng/mL, batch 7
hEDAR-mFc (human) [4] = target: hEDAR-mFc (human) (UniProt Q9UNE0); experiment: sandwich ELISA: hEDAR-mFc coated, anti-human IgG (Fc) CH2-HRP detection; EDA-A1 50 ng/mL, batch 7
hEDAR-mFc (human) [5] = target: hEDAR-mFc (human) (UniProt Q9UNE0); experiment: sandwich ELISA: hEDAR-mFc coated, anti-human IgG (Fc) CH2-HRP detection; EDA-A1 with hFc, nominal 12.5 ng/mL, batch 7
hEDAR-mFc (human) [6] = target: hEDAR-mFc (human) (UniProt Q9UNE0); experiment: sandwich ELISA: hEDAR-mFc coated, anti-human IgG (Fc) CH2-HRP detection; EDA-A1 with hFc, nominal 100 ng/mL, batch 7
hEDAR-mFc (human) [7] = target: hEDAR-mFc (human) (UniProt Q9UNE0); experiment: sandwich ELISA: hEDAR-mFc coated, anti-human IgG (Fc) CH2-HRP detection; EDA-A1 with hFc, nominal 6.25 ng/mL, batch 7
hEDAR-mFc (human) [8] = target: hEDAR-mFc (human) (UniProt Q9UNE0); experiment: sandwich ELISA: hEDAR-mFc coated, anti-human IgG (Fc) CH2-HRP detection; EDA-A1 with hFc, nominal 3.13 ng/mL, batch 7
hEDAR-mFc (human) [9] = target: hEDAR-mFc (human) (UniProt Q9UNE0); experiment: sandwich ELISA: hEDAR-mFc coated, anti-human IgG (Fc) CH2-HRP detection; EDA-A1 100 ng/mL with hFc 100 ng/mL, batch 5
hEDAR-mFc (human) [10] = target: hEDAR-mFc (human) (UniProt Q9UNE0); experiment: sandwich ELISA: hEDAR-mFc coated, anti-human IgG (Fc) CH2-HRP detection; EDA-A1 6.25 ng/mL, batch 7
hEDAR-mFc (human) [11] = target: hEDAR-mFc (human) (UniProt Q9UNE0); experiment: sandwich ELISA: hEDAR-mFc coated, anti-human IgG (Fc) CH2-HRP detection; EDA-A1 100 ng/mL, batch 5
hEDAR-mFc (human) [12] = target: hEDAR-mFc (human) (UniProt Q9UNE0); experiment: sandwich ELISA: hEDAR-mFc coated, anti-human IgG (Fc) CH2-HRP detection; EDA-A1 25 ng/mL, batch 7
hEDAR-mFc (human) [13] = target: hEDAR-mFc (human) (UniProt Q9UNE0); experiment: sandwich ELISA: hEDAR-mFc coated, anti-human IgG (Fc) CH2-HRP detection; EDA-A1 12.5 ng/mL, batch 7
hEDAR-mFc (human) [14] = target: hEDAR-mFc (human) (UniProt Q9UNE0); experiment: sandwich ELISA: hEDAR-mFc coated, anti-human IgG (Fc) CH2-HRP detection; EDA-A1 100 ng/mL, batch 7
EDI200 (human) [15] = experiment: bridging ECL in NHP serum; antibody 31.25 ng/mL with 1 µg/mL free EDI200
EDI200 (human) [16] = experiment: bridging ECL in NHP serum; antibody 62.5 ng/mL with 1 µg/mL free EDI200
EDI200 (human) [17] = experiment: bridging ECL in NHP serum; antibody 15.63 ng/mL, signal with 1 µg/mL free EDI200 over signal without
EDI200 (human) [18] = experiment: bridging ECL in NHP serum; antibody 125 ng/mL, signal with 1 µg/mL free EDI200 over signal without
EDI200 (human) [19] = experiment: bridging ECL (biotin-EDI200/SulfoTag-EDI200) in NHP serum; antibody 125 ng/mL
EDI200 (human) [20] = experiment: bridging ECL (biotin-EDI200/SulfoTag-EDI200) in NHP serum; antibody 500 ng/mL; plate NCO 129.4
EDI200 (human) [21] = experiment: bridging ECL in NHP serum; antibody 7.81 ng/mL, signal with 1 µg/mL free EDI200 over signal without
EDI200 (human) [22] = experiment: bridging ECL (biotin-EDI200/SulfoTag-EDI200) in NHP serum; antibody 15.63 ng/mL
EDI200 (human) [23] = experiment: bridging ECL in NHP serum; antibody 250 ng/mL, signal with 1 µg/mL free EDI200 over signal without
EDI200 (human) [24] = experiment: bridging ECL (biotin-EDI200/SulfoTag-EDI200) in NHP serum; antibody 7.81 ng/mL
EDI200 (human) [25] = experiment: bridging ECL (biotin-EDI200/SulfoTag-EDI200) in NHP serum; antibody 31.25 ng/mL
EDI200 (human) [26] = experiment: bridging ECL in NHP serum; antibody 62.5 ng/mL, signal with 1 µg/mL free EDI200 over signal without
EDI200 (human) [27] = experiment: bridging ECL (biotin-EDI200/SulfoTag-EDI200) in NHP serum; antibody 62.5 ng/mL
EDI200 (human) [28] = experiment: bridging ECL in NHP serum; antibody 125 ng/mL with 1 µg/mL free EDI200
EDI200 (human) [29] = experiment: bridging ECL in NHP serum; antibody 15.63 ng/mL with 1 µg/mL free EDI200
EDI200 (human) [30] = experiment: bridging ECL in NHP serum; antibody 7.81 ng/mL with 1 µg/mL free EDI200
EDI200 (human) [31] = experiment: bridging ECL (biotin-EDI200/SulfoTag-EDI200) in NHP serum; antibody 250 ng/mL
EDI200 (human) [32] = experiment: bridging ECL in NHP serum; antibody 31.25 ng/mL, signal with 1 µg/mL free EDI200 over signal without
EDI200 (human) [33] = experiment: bridging ECL in NHP serum; antibody 250 ng/mL with 1 µg/mL free EDI200
EDI200 (human) [34] = experiment: bridging ECL in NHP serum; antibody 500 ng/mL with 1 µg/mL free EDI200
EDI200 (human) [35] = experiment: bridging ECL in NHP serum; antibody 500 ng/mL, signal with 1 µg/mL free EDI200 over signal without

Sequence of EDI200 (human) (chain, as listed by the source): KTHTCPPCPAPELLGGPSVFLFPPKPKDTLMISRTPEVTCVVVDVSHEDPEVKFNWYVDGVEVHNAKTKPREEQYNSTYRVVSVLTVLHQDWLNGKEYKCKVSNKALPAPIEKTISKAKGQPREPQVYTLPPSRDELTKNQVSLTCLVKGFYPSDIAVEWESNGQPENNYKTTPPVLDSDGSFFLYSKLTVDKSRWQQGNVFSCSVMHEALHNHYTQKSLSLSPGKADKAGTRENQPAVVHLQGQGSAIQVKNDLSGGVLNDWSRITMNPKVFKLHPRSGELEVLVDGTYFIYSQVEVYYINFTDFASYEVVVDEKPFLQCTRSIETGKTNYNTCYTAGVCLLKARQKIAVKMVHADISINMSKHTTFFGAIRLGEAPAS
Sequence of hEDAR-mFc (human) (Q9UNE0 27-183 limits assumed): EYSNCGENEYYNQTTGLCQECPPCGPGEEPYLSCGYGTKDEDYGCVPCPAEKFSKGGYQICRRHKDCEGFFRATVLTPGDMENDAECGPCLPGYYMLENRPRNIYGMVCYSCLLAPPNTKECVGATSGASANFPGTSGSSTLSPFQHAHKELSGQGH

Mean OD (hEDAR-mFc (human) [1]): 0.18 OD
Mean OD (hEDAR-mFc (human) [2]): 0.214 OD
Mean OD (hEDAR-mFc (human) [3]): 0.116 OD
Mean OD (hEDAR-mFc (human) [4]): 0.234 OD
Mean OD (hEDAR-mFc (human) [5]): 0.15 OD
Mean Conc. (read as EDI200 from the standard curve) (hEDAR-mFc (human) [6]): 4.77 ng/mL
Mean OD (hEDAR-mFc (human) [6]): 0.275 OD
Mean OD (hEDAR-mFc (human) [7]): 0.125 OD
Mean OD (hEDAR-mFc (human) [8]): 0.121 OD
Mean Conc. (read as EDI200 from the standard curve) (hEDAR-mFc (human) [9]): 5.34 ng/mL
Mean OD (hEDAR-mFc (human) [9]): 0.289 OD
Mean OD (hEDAR-mFc (human) [10]): 0.119 OD
Mean Conc. (read as EDI200 from the standard curve) (hEDAR-mFc (human) [11]): 5.43 ng/mL
Mean OD (hEDAR-mFc (human) [11]): 0.292 OD
Mean OD (hEDAR-mFc (human) [12]): 0.18 OD
Mean OD (hEDAR-mFc (human) [13]): 0.14 OD
Mean Conc. (read as EDI200 from the standard curve) (hEDAR-mFc (human) [14]): 6.14 ng/mL
Mean OD (hEDAR-mFc (human) [14]): 0.316 OD
Substance: Recombinant human Ectodysplasin A1 (from UniProt Q92838 160-391) (ligand)

Mean Signal (EDI200 (human) [15]): 76 signal (ECL)
Mean Signal (EDI200 (human) [16]): 76 signal (ECL)
Drug/Non-drug Ratio (EDI200 (human) [17]): 0.91
Drug/Non-drug Ratio (EDI200 (human) [18]): 0.93
Mean Signal (EDI200 (human) [19]): 82 signal (ECL)
Mean Signal (EDI200 (human) [20]): 86 signal (ECL)
Drug/Non-drug Ratio (EDI200 (human) [21]): 0.93
Mean Signal (EDI200 (human) [22]): 81 signal (ECL)
Drug/Non-drug Ratio (EDI200 (human) [23]): 0.96
Mean Signal (EDI200 (human) [24]): 85 signal (ECL)
Mean Signal (EDI200 (human) [25]): 81 signal (ECL)
Drug/Non-drug Ratio (EDI200 (human) [26]): 0.94
Mean Signal (EDI200 (human) [27]): 81 signal (ECL)
Mean Signal (EDI200 (human) [28]): 76 signal (ECL)
Mean Signal (EDI200 (human) [29]): 74 signal (ECL)
Mean Signal (EDI200 (human) [30]): 80 signal (ECL)
Mean Signal (EDI200 (human) [31]): 83 signal (ECL)
Drug/Non-drug Ratio (EDI200 (human) [32]): 0.93
Mean Signal (EDI200 (human) [33]): 80 signal (ECL)
Mean Signal (EDI200 (human) [34]): 81 signal (ECL)
Drug/Non-drug Ratio (EDI200 (human) [35]): 0.95
Substance: mouse anti-human CD106 IgG1 antibody
